These results are taken from patent publication US20230330222A1 (ASCENDO BIOTECHNOLOGY, published 2023).

B1: recombinant human MD2 protein (receptor, UniProt Q9Y6Y9 19-160, looked up)
chain: QKQYWVCNSSDASISYTYCDKMQYPISINVNPCIELKRSKGLLHIFYIPRRDLKQLYFNLYITVNTMNLPKRKEVICRGSDDDYSFCRALKGETVNTTISFSFKGIKFSKGKYKCVVEAISGSPEEMLFCLEFVILHQPNSN
notes: also called hMD2; LY96
B2: recombinant TREML1 ECD (human TREM-like transcript-1 extracellular domain) (ligand)
chain: QGIVGSLPEVLQAPVGSSILVQCHYRLQDVKAQKVWCRFLPEGCQPLVSSAVDRRAPAGRRTFLTDLGGGLLQVEMVTLQEEDAGEYGCMVDGARGPQILHRVSLNILPPEEEEETHKIGSLAENAFSDPAGSANPLEPSQDEKSIP
notes: Expressed in E. coli from pET30-TREML1 and purified on Ni-NTA; also called hTREML1; not shown: N-terminal polyhistidine tag from pET30

Test [1] addresses B2. Description: solid phase binding assay, MD2 coated. As for the experimental part:
(§1) To identify potential binding partners of TREML1 ECD, we used solid phase binding assay to assess interactions between TREML1 ECD and candidate proteins. Briefly, various candidate proteins and BSA (as a negative control) were coated on a 96-well plate and TREML1 ECD at various concentrations were added to the wells. After binding and washing, an anti-TREML1 antibody conjugated with horse radish peroxidase (HRP) was added to each well. After washing, HRP substrate, TMB (3,3′,5,5′-tetramethylbenzidine), was added. After reaction, absorbance at 450 nm was measured to assess TREML1 binding. An exemplary set of results is shown in FIG. 2, in which recombinant TREML1 ECD binds MD2 and TLR4 in a concentration-dependent manner.
(§2) To investigate the protein-protein interactions. Recombinant TLR4 (5 ug/ml in PBS), MD2 (5 ug/ml in PBS), CD14 (5 ug/ml in PBS), and BSA (negative control) proteins were plated separately on 96-well plates and incubated overnight at 4 degrees Celsius. The blocking buffer (2% BSA in PBS) was added to avoid the nonspecific binding for 2 hr at room temperature. A serial diluted TREML1 ECD (2.5 ug/ml to 156 ng/ml, 2-fold dilutions) solutions were added and allowed to incubate at room temperature for 2 hr. Then, anti-TREML1 antibody (1 ug/ml in PBS) was added for 1 hr. […] Absorbance at OD450/540 nm was measured with a microplate reader.

Test [2] deals with T1, recombinant mouse MD2 protein (mouse, UniProt Q9JHF9 19-160).
T1 construct: also called mMD2
T1 sequence (looked up): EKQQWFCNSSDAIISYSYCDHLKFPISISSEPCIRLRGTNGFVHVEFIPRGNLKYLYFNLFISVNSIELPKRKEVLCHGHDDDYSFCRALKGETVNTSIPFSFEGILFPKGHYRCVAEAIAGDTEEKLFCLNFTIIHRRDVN
Kind of test: solid phase binding assay, mTREML1 stalk coated, anti-His-HRP detection. How it is done:
(§3) For TREML1 or mTREML1 stalk binding to human or mouse MD2 protein, TREML1 stalk or mTREML1 stalk (5 ug/ml in PBS) was coated separately on a 96-well plate. Recombinant hTLR4, hMD2, hCD14, or mMD2 was each serially diluted and added to the plates. Anti-His tag antibody-HRP was used as a detection antibody to detect the protein binding.

The next test has as its target BSA (negative control) (UniProt P02769 25-607). Description: solid phase binding assay, BSA coated as negative control. How it is done: as §1, §2
For test [3], the target named is T2, recombinant CD14 (human, UniProt P08571 20-352, limits assumed).
T2 construct: also called hCD14
T2 sequence (looked up): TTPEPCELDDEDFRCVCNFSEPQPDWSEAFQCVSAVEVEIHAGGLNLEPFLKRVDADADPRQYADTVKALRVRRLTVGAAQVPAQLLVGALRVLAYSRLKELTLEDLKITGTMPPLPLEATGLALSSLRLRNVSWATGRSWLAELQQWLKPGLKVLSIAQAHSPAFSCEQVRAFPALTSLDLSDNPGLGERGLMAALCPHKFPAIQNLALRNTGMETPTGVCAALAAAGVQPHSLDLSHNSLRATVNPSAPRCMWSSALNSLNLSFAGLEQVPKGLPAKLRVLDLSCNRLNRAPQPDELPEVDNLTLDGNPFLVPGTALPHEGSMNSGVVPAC
Kind of test: solid phase binding assay, CD14 coated at 5 ug/ml. How it is done: as §1, §2

For test [4], the target named is B1. Description: solid phase binding assay, TREML1 stalk coated, anti-His-HRP detection. How it is done: as §3
The target in test [5] is T3, recombinant TLR4 (toll-like receptor 4) (human, UniProt O00206 24-631, limits assumed).
T3 construct: also called hTLR4
T3 sequence (O00206 24-631 limits assumed): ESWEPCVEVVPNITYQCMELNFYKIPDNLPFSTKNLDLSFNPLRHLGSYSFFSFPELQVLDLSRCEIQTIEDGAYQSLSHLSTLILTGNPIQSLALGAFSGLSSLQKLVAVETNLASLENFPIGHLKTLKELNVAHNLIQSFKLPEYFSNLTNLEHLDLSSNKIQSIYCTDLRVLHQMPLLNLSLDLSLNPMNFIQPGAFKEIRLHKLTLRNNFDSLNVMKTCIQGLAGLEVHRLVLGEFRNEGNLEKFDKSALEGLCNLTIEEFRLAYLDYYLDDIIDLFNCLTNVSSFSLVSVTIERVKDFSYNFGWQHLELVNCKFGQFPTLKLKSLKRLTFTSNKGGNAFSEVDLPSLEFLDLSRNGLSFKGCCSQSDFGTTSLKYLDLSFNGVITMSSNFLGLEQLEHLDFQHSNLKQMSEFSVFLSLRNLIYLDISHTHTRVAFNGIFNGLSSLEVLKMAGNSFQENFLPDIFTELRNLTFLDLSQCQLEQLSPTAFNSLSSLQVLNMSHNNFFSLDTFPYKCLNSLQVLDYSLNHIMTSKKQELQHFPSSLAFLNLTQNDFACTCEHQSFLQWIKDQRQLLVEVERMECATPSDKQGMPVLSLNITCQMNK
Kind of test: solid phase binding assay, TREML1 stalk coated at 5 ug/ml, anti-His-HRP detection. How it is done: as §3

Test [6] has as its target T2, recombinant CD14. Described as above. As for the experimental part: as §3

Chain of BSA (negative control) (P02769 25-607 limits assumed): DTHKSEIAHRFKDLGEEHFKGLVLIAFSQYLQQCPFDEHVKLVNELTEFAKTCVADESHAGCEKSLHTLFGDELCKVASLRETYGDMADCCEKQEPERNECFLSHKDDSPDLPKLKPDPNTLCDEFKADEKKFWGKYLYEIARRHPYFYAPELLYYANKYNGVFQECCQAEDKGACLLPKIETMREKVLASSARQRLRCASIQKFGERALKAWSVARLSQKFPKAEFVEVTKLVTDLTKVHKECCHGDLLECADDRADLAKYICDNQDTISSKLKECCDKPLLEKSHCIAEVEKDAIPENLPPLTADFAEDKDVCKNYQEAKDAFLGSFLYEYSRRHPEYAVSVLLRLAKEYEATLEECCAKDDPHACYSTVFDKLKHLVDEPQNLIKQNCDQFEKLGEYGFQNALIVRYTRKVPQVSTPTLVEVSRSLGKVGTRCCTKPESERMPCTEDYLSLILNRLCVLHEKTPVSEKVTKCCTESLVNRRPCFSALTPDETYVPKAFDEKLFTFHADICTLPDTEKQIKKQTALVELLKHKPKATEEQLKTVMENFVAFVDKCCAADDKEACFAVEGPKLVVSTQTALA

On to B1, for which, in test [1], the binding result is listed as “binds”.
In the case of EGEEAEDEKETYRIGTGSLLEDPSLDPSASAGPHEFRRRENSIP (also called mouse TREML1 stalk) [mTREML1 stalk polypeptide (mouse)], the binding result in test [2] is recorded as “binds”.
Turning to B2, the binding result in the test with BSA (negative control) and in the test with recombinant CD14 [3] was “no binding (tested: 2.5 ug/ml to 156 ng/ml TREML1 ECD)” each time.
Turning to ILPPEEEEETHKIGSLAENAFSDPAGSANPLEPSQDEKSIP [TREML1 stalk polypeptide (human)], the figures for the binding result (in test [4]; in test [5]; in the test with recombinant CD14 [6]) were “binds”, “no binding” and “no binding”, respectively.
